Columns and labels:
[1] = target: T1, His tagged A1 domain of rat von Willebrand factor, expressed in E. coli (rat, UniProt Q62935 13-256); experiment: calculated from koff, DELFIA kinetics on plate-coated His-A1, 37 °C
T1 construct: domain: A1 domain; also called His-A1 (rat); His-rA1; not shown: His tag from the pETDuet-1 vector

[2] = target: T1, His tagged A1 domain of rat von …; experiment: ratio of the kinetic constants (row printed as 'kon/koff'), DELFIA, 37 °C
[3] = target: T1, His tagged A1 domain of rat von …; experiment: DELFIA association kinetics, Eu-labelled antibody on plate-coated His-A1, 37 °C
[4] = target: T1, His tagged A1 domain of rat von …; experiment: equilibrium binding (Scatchard), Eu-labelled antibody on direct-coated His-A1, DELFIA, 37 °C, n = 5
Procedure: Equilibrium binding assays are performed as follows. Eu-antibody is pre-diluted into Binding Buffer (e.g., Wash buffer containing 100 μg/ml IgG-free BSA and 0.1% sodium azide) and applied to wells (e.g., 10 μl/well) of a 96-well plate and the plates sealed with SEALPLATE film. The plates are shaken (e.g., Titer Plate Shaker speed setting of 4 for ≧15 sec or 60 sec at RT), placed into nalgene boxes containing wet paper towels, and incubated in the closed boxes for 2 hours at 37° C. For the measurement of free label, supernatant samples (4.0 μl) are transferred from the wells containing binding mixtures into a parallel set of wells containing DELFIA Enhancement Solution (100 μl/well). To assess bound antibody, the A1-coated wells with the remaining binding mixtures are washed five times with Wash Buffer, tapped dry onto paper towels and DELFIA Enhancement Solution (100 μl/well) added to the empty wells for the measurement of bound label. For assay calibration, DELFIA Enhancement Solution (100 μl/well) is added to unused wells and Europium Standard (1.0 μl/well) is added. The plates are shaken (e.g., Titer Plate Shaker speed setting of 5 for 10 minutes at room temperature), and time-resolved fluorescent (TRF) intensities are read using a Victor2 multi-label plate reader (Perkin-Elmer Wallac, Boston, Mass.). […]

[5] = target: T1, His tagged A1 domain of rat von …; experiment: homologous competition with Eu-NMC-4 chimera on plate-coated rat His-A1, DELFIA, Cheng-Prusoff, n = 3
Procedure: Wells of Immulon-4 plates are coated with His-A1 domain of vWF from human (e.g., 25 ng in 100 μl/well in 30 mM Tris, pH 7.4 and 300 mM NaCl or divalent cation-free PBS) or rat (e.g., 50 ng/well) by incubating overnight at 4° C. The plates are washed three times with Wash Buffer (e.g., 50 mM HEPES, pH 7.4, 150 mM NaCl, 0.5% Tween-20), blocked with 300 μl/well Blocking Buffer (e.g., Wash Buffer containing 3.0 mg/ml IgG-free BSA and 0.1% sodium azide) for 1 hour at room temperature and washed 5 times with Wash Buffer before use.
Competitive binding studies may be performed to determine Ki values (e.g., a measure of relative affinity for antigen). […] The final concentration of europium-labeled antibody is 100 pM.

Dissociation half-life [1]: 69 min | Kd [2]: 0.7 nM | kon [3]: 233000 M⁻¹ s⁻¹ | Kd [4]: 0.276 nM | Ki [5]: 0.297 nM
B1: NMC-4-human Fc chimera (NMC-4 variable regions on human IgG1(dm) and human kappa constant regions) (antibody, V domains shown)
VH: QVQLKESGPGLVAPSQSLSITCTVSGFSLTDYGVDWVRQPPGKGLEWLGMIWGDGSTDYNSALKSRLSITKDNSKSQVFLKMNSLQTDDTARYYCVRDPADYGNYDYALDYWGQGTSVTVSS
VL: DIQMTQSPSSLSASLGDRVTISCSASQDINKYLNWYQQKPDGAVKLLIFYTSSLHSGVPSRFSGSGSGTDYSLTISNLEPEDIATYYCQQYEKLPWTFGGGTKLEVK
notes: Heavy constant region is human IgG1 with L235E, E318A, K320A, K332A (IgG1(dm)); also called NMC-4 chimera; NMC4 chimera
